Results as given in patent US8409577 (EMERGENT PRODUCT DEVELOPMENT SEATTLE, dated 2013).

Target: T1, CD20 (human, UniProt P11836 1-297)
T1 construct: whole, on cells; target on WIL2-S (WIL-2S), Ramos and BJAB cells; also called human CD20
T1 sequence (looked up): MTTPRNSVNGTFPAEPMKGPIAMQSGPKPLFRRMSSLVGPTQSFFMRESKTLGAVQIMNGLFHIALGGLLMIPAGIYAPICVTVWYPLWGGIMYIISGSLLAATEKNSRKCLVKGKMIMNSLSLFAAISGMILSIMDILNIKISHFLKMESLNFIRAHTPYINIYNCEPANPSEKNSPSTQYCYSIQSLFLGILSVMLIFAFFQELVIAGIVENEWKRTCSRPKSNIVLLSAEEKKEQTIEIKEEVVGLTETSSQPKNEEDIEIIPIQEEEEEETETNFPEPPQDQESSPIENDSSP
Assay: flow cytometry: 2e12 HL SMIP on WIL-2S cells (CD20), then CD28mIgG 5 ug/ml and FITC anti-mouse 1:100
Procedure: In this case, the fusion proteins were first bound to WIL-2S CD20 expressing cells, and binding was then detected with CD28mIgG (5 µg/ml) and FITC anti-mouse reagent at 1:100.

B1: 2E12IgG-VHVL SMIP (Fc fusion)
chain: VQVQLKESGPGLVAPSQSLSITCTVSGFSLTGYGVNWVRQPPGKGLEWLGMIWGDGSTDYNSALKSRLSITKDNSKSQVFLKMNSLQTDDTARYYCARDGYSNFHYYVMDYWGQGTSVTVSSGGGGSGGGGSGGGGSGGGGSDIVLTQSPASLAVSLGQRATISCRASESVEYYVTSLMQWYQQKPGQPPKLLISAASNVESGVPARFSGSGSGTDFSLNIHPVEEDDIAMYFCQQSRKVPWTFGGGTKLEIKR
notes: also called 2e12 VHVL SMIP; 2e12 HL SMIP; not shown: IgG hinge-CH2-CH3 of the SMIP, not described
  binding result: no binding (tested: about 5 ug/mL (read off the axis))
